The values below come from article PMC4936685.

For this test, the target named is Recombinant human latent TGF-β1 (small latent complex, SLC: LAP with mature TGF-β1) (human) (UniProt P01137). Put plainly: SPR; Biacore 3000; LAP or latent TGF-β1 amine-coupled to a CM5 chip (1000 RU); PSG9-Fc injected at 6, 4, 2, 1, 0.5 and 0.25 μM, 10 μl/min, 25°C, HBS-EP (0.01 M HEPES pH 7.4, 0.15 M NaCl, 3 mM EDTA, 0.005% P20); 1:1 Langmuir model. (In general: Surface plasmon resonance follows binding to a sensor surface in real time, without labels.)
UniProt P01137, sequence (P01137 whole entry, one chain of several): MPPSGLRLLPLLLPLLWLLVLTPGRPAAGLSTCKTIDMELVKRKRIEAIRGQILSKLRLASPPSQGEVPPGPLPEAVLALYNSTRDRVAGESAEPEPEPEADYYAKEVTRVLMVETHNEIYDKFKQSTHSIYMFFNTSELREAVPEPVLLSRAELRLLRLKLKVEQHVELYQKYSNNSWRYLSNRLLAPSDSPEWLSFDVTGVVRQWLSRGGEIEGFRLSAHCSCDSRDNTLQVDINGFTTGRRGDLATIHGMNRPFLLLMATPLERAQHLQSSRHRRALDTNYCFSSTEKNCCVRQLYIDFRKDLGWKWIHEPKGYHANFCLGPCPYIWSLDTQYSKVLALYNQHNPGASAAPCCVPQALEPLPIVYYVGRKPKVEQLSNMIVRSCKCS

Consider “PSG9-Fc (recombinant human pregnancy-specific glycoprotein 9 with the N, A1, A2 and B2 domains, fused to the Fc of human IgG1) (from UniProt Q00887-1 35-426) (Fc fusion)”, for which the Kd came out at 560 nM, the koff came out at 0.00065 s⁻¹ and the kon turned out to be 1150 M⁻¹ s⁻¹.

Usually Kd stands for the equilibrium constant for the complex coming apart. The term koff denotes the rate constant with which the complex falls apart. What is called kon is a measure of how fast the partners come together.
